Source: PMC4646227, “Plasticity in PYD assembly revealed by cryo-EM structure of the PYD filament of AIM2” (Cell Discovery, 2015)
Each block holds one molecule with its values, some of them ahead of it.

Key:
[1] = molecular target: ASC PYD (M1-Q105, S106C), fluorophore-labelled, MBP removed by TEV (UniProt Q9ULZ3); assay: fluorescence polarisation; apparent; Alexa Fluor 488-labelled MBP-ASC PYD, same procedure, mCherry-NLRP6 PYD added as nucleator
[2] = molecular target: the molecule itself; assay: cryo-EM structure; helical reconstruction of His-GFP-AIM2 PYD filaments; sample in 20 mM HEPES pH 8.0, 150 mM NaCl, 2 mM dithiothreitol
[3] = molecular target: T1, ASC PYD (M1-Q105, S106C), fluorophore-labelled, MBP removed by TEV (UniProt Q9ULZ3 1-106, S106C, Alexa Fluor 568 on the engineered C-terminal Cys (maleimide); Alexa Fluor 488 instead in the experiment with mCherry-NLRP6^PYD); assay: fluorescence polarisation; apparent; Alexa568-labelled MBP-ASC PYD, polymerisation started by TEV removal of MBP; initial rates of ASC PYD filament formation plotted against concentrations of added GFP-AIM2 PYD seeds; settings: both partners purified
T1 construct: Apoptosis-associated speck-like protein containing a CARD (ASC), Pyrin domain, M1-Q105 followed by an engineered Cys (S106C); also called labeled MBP-ASC^PYD (before cleavage); source: E. coli BL21(DE3), purified (Ni-NTA, SEC) as monomeric MBP fusion, labelled, MBP removed by TEV in the assay
T1 sequence (Q9ULZ3 1-106 S106C): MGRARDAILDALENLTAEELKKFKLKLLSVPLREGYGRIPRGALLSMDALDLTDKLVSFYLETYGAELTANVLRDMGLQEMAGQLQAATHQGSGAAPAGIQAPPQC

Sequence of ASC PYD (M1-Q105, S106C), fluorophore-labelled, MBP removed by TEV (UniProt Q9ULZ3) (Q9ULZ3 1-106 S106C): as above

Kd [1]: 90 nM
Molecule: mCherry-tagged NLRP6 PYD (domain or fragment)

Kd [3]: ~210 nM
B1: His-GFP-tagged AIM2 PYD (M1-P100) (domain or fragment, human, UniProt O14862 1-100, looked up)
chain: MESKYKEILLLTGLDNITDEELDRFKFFLSDEFNIATGKLHTANRIQVATLMIQNAGAVSAVMKTIRIFQKLNYMLLAKRLQEEKEKVDKQYKSVTKPKP
notes: Absent in melanoma 2 (AIM2), human, Pyrin domain, residues M1-P100; Non-cleavable His-GFP tag from a pET28a backbone; A two-residue linker from the BamHI site joins GFP and AIM2 PYD; The protein forms filaments; also called GFP-AIM2^PYD; His-GFP-AIM2^PYD; source: E. coli BL21(DE3), purified (Ni-NTA, SEC; void fractions); not shown: His, N-terminal, kept; GFP (monomeric, M1-T230, A206K), …
binding result [2]: binds
